Measurements taken from the supplement of paper PMC10567573.

B1: BTBD10 (parent)
chain: DRKLHSRPRKLYKHSSTSSRIAKG

Variants of: B1
Assay: protein stability index of a GFP-peptide fusion (GPS, HEK-293T) (PSI 1-6); higher = more stable
Conditions: c terminus: a fixed tail appended
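Also: lentivirally expressed fusions sorted by FACS into six bins by GFP to DsRed ratio, PSI derived from sequencing read proportions per bin multiplied by bin number.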

| Variant | protein stability index |
| --- | --- |
| DRKLHSRPRKLYKASSTSSRIAKG [H14A] | 4.27 |
| DRKLHSRPRKLAKHSSTSSRIAKG [Y12A] | 4.54 |
| DRKLHSRPRKLFKHSSTSSRIAKG [Y12F] | 4.01 |
| DRKLHSRPRKLKKHSSTSSRIAKG [Y12K] | 4.72 |
| DRKLHSRPRKLNKHSSTSSRIAKG [Y12N] | 4.12 |
| DRKLHSRPRKLPKHSSTSSRIAKG [Y12P] | 4.15 |
| DRKLHSRPRKLVKHSSTSSRIAKG [Y12V] | 4.08 |
| DRKLHSRPRKLCKHSSTSSRIAKG [Y12C] | 3.84 |
| DRKLHSRPRKLRKHSSTSSRIAKG [Y12R] | 4.21 |
| DRKLHSRPRKLIKHSSTSSRIAKG [Y12I] | 3.3 |
| DRKLHSRPRKLWKHSSTSSRIAKG [Y12W] | 4.1 |
| DRKLHSRPRKLGKHSSTSSRIAKG [Y12G] | 4.65 |
| DRKLHSRPRKLLKHSSTSSRIAKG [Y12L] | 3.88 |
| DRKLHSRPRKLSKHSSTSSRIAKG [Y12S] | 4.65 |
| DRKLHSRPRKLTKHSSTSSRIAKG [Y12T] | 4.05 |
| DRKLHSRPRKLDKHSSTSSRIAKG [Y12D] | 4.27 |
| DRKLHSRPRKLEKHSSTSSRIAKG [Y12E] | 4.28 |
| DRKLHSRPRKLHKHSSTSSRIAKG [Y12H] | 3.78 |
| DRKLHSRPRKLMKHSSTSSRIAKG [Y12M] | 3.11 |
| DRKLHSRPRKLQKHSSTSSRIAKG [Y12Q] | 4.01 |
| DRKLHSRPRKNYKHSSTSSRIAKG [L11N] | 3.46 |
| DRKLHSRPRKTYKHSSTSSRIAKG [L11T] | 4.82 |
| DRKLHSRPRKVYKHSSTSSRIAKG [L11V] | 3.82 |
| DRKLHSRPRKHYKHSSTSSRIAKG [L11H] | 3.93 |

| Variant | protein stability index |
| --- | --- |
| DRKLHSRPRKMYKHSSTSSRIAKG [L11M] | 4.67 |
| DRKLHSRPRKIYKHSSTSSRIAKG [L11I] | 3.61 |
| DRKLHSRPRKQYKHSSTSSRIAKG [L11Q] | 4.13 |
| DRKLHSRPRKEYKHSSTSSRIAKG [L11E] | 4.49 |
| DRKLHSRPRKYYKHSSTSSRIAKG [L11Y] | 3.7 |
| DRKLHSRPRKKYKHSSTSSRIAKG [L11K] | 4.19 |
| DRKLHSRPRKDYKHSSTSSRIAKG [L11D] | 3.71 |
| DRKLHSRPRKPYKHSSTSSRIAKG [L11P] | 3.79 |
| DRKLHSRPRKFYKHSSTSSRIAKG [L11F] | 4.91 |
| DRKLHSRPRKCYKHSSTSSRIAKG [L11C] | 2.99 |
| DRKLHSRPRKAYKHSSTSSRIAKG [L11A] | 4.08 |
| DRKLHSRPRKWYKHSSTSSRIAKG [L11W] | 3.67 |
| DRKLHSRPRKGYKHSSTSSRIAKG [L11G] | 4.16 |
| DRKLHSRPRKRYKHSSTSSRIAKG [L11R] | 4.42 |
| DRKLHSRPRKSYKHSSTSSRIAKG [L11S] | 4.57 |
| DRKLHSRPPKLYKHSSTSSRIAKG [R9P] | 3.69 |
| DRKLHSRPSKLYKHSSTSSRIAKG [R9S] | 4.47 |
| DRKLHSRPHKLYKHSSTSSRIAKG [R9H] | 3.7 |
| DRKLHSRPWKLYKHSSTSSRIAKG [R9W] | 3.51 |
| DRKLHSRPIKLYKHSSTSSRIAKG [R9I] | 3.02 |
| DRKLHSRPLKLYKHSSTSSRIAKG [R9L] | 3.85 |
| DRKLHSRPEKLYKHSSTSSRIAKG [R9E] | 4.19 |
| DRKLHSRPDKLYKHSSTSSRIAKG [R9D] | 4.01 |
| DRKLHSRPYKLYKHSSTSSRIAKG [R9Y] | 3.64 |

| Variant | protein stability index |
| --- | --- |
| DRKLHSRPNKLYKHSSTSSRIAKG [R9N] | 4.13 |
| DRKLHSRPGKLYKHSSTSSRIAKG [R9G] | 4.3 |
| DRKLHSRPQKLYKHSSTSSRIAKG [R9Q] | 4.11 |
| DRKLHSRPMKLYKHSSTSSRIAKG [R9M] | 3.74 |
| DRKLHSRPVKLYKHSSTSSRIAKG [R9V] | 3.82 |
| DRKLHSRPTKLYKHSSTSSRIAKG [R9T] | 3.84 |
| DRKLHSRPKKLYKHSSTSSRIAKG [R9K] | 4.17 |
| DRKLHSRPFKLYKHSSTSSRIAKG [R9F] | 3.27 |
| DRKLHSRPRTLYKHSSTSSRIAKG [K10T] | 3.58 |
| DRKLHSRPRRLYKHSSTSSRIAKG [K10R] | 3.97 |
| DRKLHSRPRLLYKHSSTSSRIAKG [K10L] | 3.77 |
| DRKLHSRPRPLYKHSSTSSRIAKG [K10P] | 3.25 |
| DRKLHSRPRILYKHSSTSSRIAKG [K10I] | 2.62 |
| DRKLHSRPRQLYKHSSTSSRIAKG [K10Q] | 4.08 |
| DRKLHSRPRSLYKHSSTSSRIAKG [K10S] | 4.09 |
| DRKLHSRPRCLYKHSSTSSRIAKG [K10C] | 3.55 |
| DRKLHSRPRHLYKHSSTSSRIAKG [K10H] | 4.07 |
| DRKLHSRPRNLYKHSSTSSRIAKG [K10N] | 4.07 |
| DRKLHSRPRDLYKHSSTSSRIAKG [K10D] | 4.21 |
| DRKLHSRPRFLYKHSSTSSRIAKG [K10F] | 3.18 |
| DRKLHSRPRMLYKHSSTSSRIAKG [K10M] | 3.24 |
| DRKLHSRPRGLYKHSSTSSRIAKG [K10G] | 3.52 |
| DRKLHSRPRVLYKHSSTSSRIAKG [K10V] | 3.72 |
| DRKLHSRPRELYKHSSTSSRIAKG [K10E] | 2.8 |

| Variant | protein stability index |
| --- | --- |
| DRKLHSRPRWLYKHSSTSSRIAKG [K10W] | 3.33 |
| DRKLHSRPRALYKHSSTSSRIAKG [K10A] | 3.67 |
| DRKLHSRPRYLYKHSSTSSRIAKG [K10Y] | 3.94 |
| DRKLHSRPRKLYQHSSTSSRIAKG [K13Q] | 4.12 |
| DRKLHSRPRKLYAHSSTSSRIAKG [K13A] | 4.04 |
| DRKLHSRPRKLYCHSSTSSRIAKG [K13C] | 3.68 |
| DRKLHSRPRKLYNHSSTSSRIAKG [K13N] | 3.61 |
| DRKLHSRPRKLYPHSSTSSRIAKG [K13P] | 3.86 |
| DRKLHSRPRKLYYHSSTSSRIAKG [K13Y] | 3.6 |
| DRKLHSRPRKLYDHSSTSSRIAKG [K13D] | 4.23 |
| DRKLHSRPRKLYIHSSTSSRIAKG [K13I] | 2.68 |
| DRKLHSRPRKLYWHSSTSSRIAKG [K13W] | 3.55 |
| DRKLHSRPRKLYEHSSTSSRIAKG [K13E] | 4.47 |
| DRKLHSRPRKLYMHSSTSSRIAKG [K13M] | 2.84 |
| DRKLHSRPRKLYVHSSTSSRIAKG [K13V] | 3.69 |
| DRKLHSRPRKLYSHSSTSSRIAKG [K13S] | 3.52 |
| DRKLHSRPRKLYTHSSTSSRIAKG [K13T] | 4 |
| DRKLHSRPRKLYFHSSTSSRIAKG [K13F] | 2.77 |
| DRKLHSRPRKLYGHSSTSSRIAKG [K13G] | 4.42 |
| DRKLHSRPRKLYLHSSTSSRIAKG [K13L] | 2.84 |
| DRKLHSRPRKLYRHSSTSSRIAKG [K13R] | 3.74 |
| DRKLHSRPRKLYHHSSTSSRIAKG [K13H] | 3.65 |
